To fix the notation:
B1: Vac8[Δ19–33] (full-length Vac8 lacking the H1 helix, residues 19–33) (natural protein, S. cerevisiae, UniProt P39968 1-578, looked up)
chain: MGSCCSCLKDSSDEASVSYLEDKDQLDFYSGGPLKALTTLVYSDNLNLQRSAALAFAEITEKYVRQVSREVLEPILILLQSQDPQIQVAACAALGNLAVNNENKLLIVEMGGLEPLINQMMGDNVEVQCNAVGCITNLATRDDNKHKIATSGALIPLTKLAKSKHIRVQRNATGALLNMTHSEENRKELVNAGAVPVLVSLLSSTDPDVQYYCTTALSNIAVDEANRKKLAQTEPRLVSKLVSLMDSPSSRVKCQATLALRNLASDTSYQLEIVRAGGLPHLVKLIQSDSIPLVLASVACIRNISIHPLNEGLIVDAGFLKPLVRLLDYKDSEEIQCHAVSTLRNLAASSEKNRKEFFESGAVEKCKELALDSPVSVQSEISACFAILALADVSKLDLLEANILDALIPMTFSQNQEVSGNAAAALANLCSRVNNYTKIIEAWDRPNEGIRGFLIRFLKSDYATFEHIALWTILQLLESHNDKVEDLVKNDDDIINGVRKMADVTFERLQRSGIDVKNPGSNNNPSSNDNNSNNNDTGSEHQPVEDASLELYNITQQILQFLH
B2: Vac8[40–515] (domain or fragment, S. cerevisiae, UniProt P39968 40-515, looked up)
chain: QLDFYSGGPLKALTTLVYSDNLNLQRSAALAFAEITEKYVRQVSREVLEPILILLQSQDPQIQVAACAALGNLAVNNENKLLIVEMGGLEPLINQMMGDNVEVQCNAVGCITNLATRDDNKHKIATSGALIPLTKLAKSKHIRVQRNATGALLNMTHSEENRKELVNAGAVPVLVSLLSSTDPDVQYYCTTALSNIAVDEANRKKLAQTEPRLVSKLVSLMDSPSSRVKCQATLALRNLASDTSYQLEIVRAGGLPHLVKLIQSDSIPLVLASVACIRNISIHPLNEGLIVDAGFLKPLVRLLDYKDSEEIQCHAVSTLRNLAASSEKNRKEFFESGAVEKCKELALDSPVSVQSEISACFAILALADVSKLDLLEANILDALIPMTFSQNQEVSGNAAAALANLCSRVNNYTKIIEAWDRPNEGIRGFLIRFLKSDYATFEHIALWTILQLLESHNDKVEDLVKNDDDIINGVRK
B3: Vac8[40–515]^N60R,N62R (domain or fragment, S. cerevisiae, UniProt P39968 40-515, looked up)
chain: B2 chain with N21R, N23R
B4: Vac8[40–515]^N62R (domain or fragment, S. cerevisiae, UniProt P39968 40-515, looked up)
chain: B2 chain with N23R
B5: Vac8[40–578] (domain or fragment, S. cerevisiae, UniProt P39968 40-578, looked up)
chain: QLDFYSGGPLKALTTLVYSDNLNLQRSAALAFAEITEKYVRQVSREVLEPILILLQSQDPQIQVAACAALGNLAVNNENKLLIVEMGGLEPLINQMMGDNVEVQCNAVGCITNLATRDDNKHKIATSGALIPLTKLAKSKHIRVQRNATGALLNMTHSEENRKELVNAGAVPVLVSLLSSTDPDVQYYCTTALSNIAVDEANRKKLAQTEPRLVSKLVSLMDSPSSRVKCQATLALRNLASDTSYQLEIVRAGGLPHLVKLIQSDSIPLVLASVACIRNISIHPLNEGLIVDAGFLKPLVRLLDYKDSEEIQCHAVSTLRNLAASSEKNRKEFFESGAVEKCKELALDSPVSVQSEISACFAILALADVSKLDLLEANILDALIPMTFSQNQEVSGNAAAALANLCSRVNNYTKIIEAWDRPNEGIRGFLIRFLKSDYATFEHIALWTILQLLESHNDKVEDLVKNDDDIINGVRKMADVTFERLQRSGIDVKNPGSNNNPSSNDNNSNNNDTGSEHQPVEDASLELYNITQQILQFLH
B6: tNvj1 (Nvj1 construct comprising residues 229–321) (domain or fragment, S. cerevisiae, UniProt P38881 229-321, looked up)
chain: NREKDCSSSSEVESQSKCRKESTAEPDSLSRDTRTTSSLKSSTSFPISFKGSIDLKSLNQPSSLLHIQVSPTKSSNLDAQVNTEQAYSQPFRY

The data set “AUC” concerns the molecule itself. The data set is described as follows: AUC.
Data set [1] deals with the molecule itself. The data set is described as follows: SEC.
Data set [2] concerns the molecule itself. Description: SEC. The source holds these as a separate data set.
The data set “SAXS” concerns the molecule itself. The data set is described as follows: SAXS.
For the data set “Vac8[40–515]^N60R,N62R”, the target named is B3. The data set is described as follows: SEC.
The target in the data set “Vac8[40–515]^N62R” is B4. Description: SEC.
The data set “Vac8[40–578]” has as its target B5. The data set is described as follows: SAXS.
Another data set addresses T1, Vac8[40–515]^A51R (S. cerevisiae, UniProt P39968 40-515, A51R).
T1 sequence (looked up): B2 chain with A12R
The data set is described as follows: cross-linking.

The data set “Vac8[40–515]” has as its target B2. Description: cross-linking.

The values below come from publication PMC7469494 (Autophagy, 2019).

Positions count from the first letter of the chain named. Names and notes keep the numbering of the source.

As for B1, the binding result in the data set “AUC” is on record as “binds”.
Consider B2, for which the binding result in the data set “SEC [1]” was “binds”.
Turning to B3, the binding result in “SEC [2]” was “binds”.
Turning to B4, the binding result in “SEC [1]” is “binds”.
B5: in “SAXS”, the binding result is reported as “binds”.
For B6, the binding result with Vac8[40–515]^N60R,N62R, with Vac8[40–515]^N62R, in the data set with Vac8[40–578], with Vac8[40–515]^A51R and with Vac8[40–515] was “binds” each time.
